Source: WO2018223004A1 (dated 2018)

Target: T1, human CD20 (B-lymphocyte antigen CD20) (human, UniProt P11836 1-297)
T1 sequence (looked up): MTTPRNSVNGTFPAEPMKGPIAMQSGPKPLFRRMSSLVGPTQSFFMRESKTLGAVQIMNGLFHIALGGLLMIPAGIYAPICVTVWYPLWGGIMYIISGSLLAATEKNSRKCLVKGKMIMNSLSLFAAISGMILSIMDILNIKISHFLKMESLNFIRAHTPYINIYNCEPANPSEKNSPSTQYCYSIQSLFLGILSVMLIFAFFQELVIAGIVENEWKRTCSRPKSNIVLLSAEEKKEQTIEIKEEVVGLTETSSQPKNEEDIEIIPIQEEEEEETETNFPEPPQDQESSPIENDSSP
Test: cell-based or functional assay

B1: XmAb13676 Anti-CD20 x Anti-CD3 Fab-scFv-Fc bispecific antibody (bispecific antibody)
heavy: QVQLVQSGAEVKKPGASVKVSCKASGYTFTSYNMHWVRQAPGQGLEWMGAIYPGNGDTSYNQKFQGRVTITADKSISTAYMELSSLRSEDTAVYYCARSTYYGGDWYFNVWGAGTLVTVSSASTKGPSVFPLAPSSKSTSGGTAALGCLVKDYFPEPVTVSWNSGALTSGVHTFPAVLQSSGLYSLSSVVTVPSSSLGTQTYICNVNHKPSDTKVDKKVEPKSCDKTHTCPPCPAPPVAGPSVFLFPPKPKDTLMISRTPEVTCVVVDVKHEDPEVKFNWYVDGVEVHNAKTKPREEEYNSTYRVVSVLTVLHQDWLNGKEYKCKVSNKALPAPIEKTISKAKGQPREPQVYTLPPSREEMTKNQVSLTCDVSGFYPSDIAVEWESDGQPENNYKTTPPVLDSDGSFFLYSKLTVDKSRWEQGDVFSCSVMHEALHNHYTQKSLSLSPGK
scFv: not shown
light: QIVLTQSPSSLSASVGDRVTITCRASSSVSYIHWFQQKPGKSPKPLIYATSNLASGVPVRFSGSGSGTDYTLTISSLQPEDFATYYCQQWTSNPPTFGGGTKVEIKRTVAAPSVFIFPPSDEQLKSGTASVVCLLNNFYPREAKVQWKVDNALQSGNSQESVTEQDSKDSTYSLSSTLTLSKADYEKHKVYACEVTHQGLSSPVTKSFNRGEC
  EC50 of Jeko-1 target cell killing in the absence of rituximab: 24 ng/mL
  EC50 of Jeko-1 target cell killing with 3 μg/ml rituximab: 51 ng/mL
  EC50 of Jeko-1 target cell killing with 10 μg/ml rituximab: 93 ng/mL
  EC50 of Jeko-1 target cell killing with 30 μg/ml rituximab: 162 ng/mL
  EC50 of Jeko-1 target cell killing with 100 μg/ml rituximab: 387 ng/mL
  EC50 of RTCC against Ramos cells with purified T cells from six healthy donors: 5.3 to 14.3 ng/mL
  potency of killing of SC-1 against the cell lines with high or intermediate CD20 levels: ~10 fold
